Source: publication PMC6351631, “Biochemical and Proteomic Characterization of Recombinant Human α/β Hydrolase Domain 6” (Scientific Reports, 2019)

Experiments:
[1] = molecular target: T1, human alpha/beta hydrolase domain 6 (hABHD6) (Homo sapiens, UniProt Q9BV23, DEL38-40); experiment: MALDI-TOF MS of tryptic digest showing +[…] Da adduct on purified enzyme; fluorometric AHMMCE inhibition assay; type: binding
T1 construct: gene ABHD6; hΔ29-3-ABHD6 (first 29 residues and Y38YW deleted, N-terminal His6) for MS; full-length hABHD6 in solubilized E. coli membrane fraction for IC50
T1 sequence (Q9BV23 with tags, fused parts or gaps DEL38-40): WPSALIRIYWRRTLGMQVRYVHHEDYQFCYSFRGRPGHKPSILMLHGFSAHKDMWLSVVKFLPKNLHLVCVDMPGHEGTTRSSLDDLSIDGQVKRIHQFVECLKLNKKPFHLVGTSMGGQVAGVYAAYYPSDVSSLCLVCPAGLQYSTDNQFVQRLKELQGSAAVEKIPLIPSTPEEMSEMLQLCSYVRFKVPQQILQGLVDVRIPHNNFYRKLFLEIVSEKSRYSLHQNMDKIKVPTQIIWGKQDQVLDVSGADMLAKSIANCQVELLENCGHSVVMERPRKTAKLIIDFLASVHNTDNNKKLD

[2] = substrate: CCCCC/C=C\C/C=C\C/C=C\C/C=C\CCCC(=O)OC(CO)CO; experiment: HPLC quantification of arachidonic acid formed, Michaelis-Menten kinetics (Km); type: biochemical, Homo sapiens

With `CN(C)C(=O)n1nnc(Cc2ccc(-c3ccccc3)cc2)n1` [AM6701] the IC50 [1] was 900 pM.

B1: human alpha/beta hydrolase domain 6 (hABHD6) (Homo sapiens; DEL38-40) (protein)
chain: T1 sequence (Q9BV23 with tags, fused parts or gaps DEL38-40)
B1 showed a Km [2] of 139 µM and a Vmax [2] of 0.35 µM/min/mg.
